Data on 18 sequences can be found in the Immune Epitope Database (IEDB).

pKd: −log10 of the molar value.

For experiment [1], the target named is HLA-C*15:02. Put plainly: IEDB peptide-MHC binding, purified MHC/direct/fluorescence; filed as Kd, often an IC50 or EC50 that approximates it; ≥ and ≤ were set here for values at or beyond the usual limits of such assays. Conditions: source organism: Bacillus cereus G9241.
For experiment [2], the target named is HLA-B*39:01. Put plainly: IEDB peptide-MHC binding, purified MHC/competitive/fluorescence; filed as Kd, often an IC50 or EC50 that approximates it; ≥ and ≤ were set here for values at or beyond the usual limits of such assays.
Experiment [3] has as its target HLA-A*02:03. The experiment is described as above. Conditions: source organism: Bacillus cereus G9241.
The target in experiment [4] is HLA-A*03:01. Described as above.
For experiment [5], the target named is HLA-B*18:01. The experiment is described as above.
For experiment [6], the target named is HLA-B*57:01. The description is as above.
Experiment [7] has as its target HLA-A*26:01. Described as above.
The target of experiment [8] is HLA-B*27:03. Described as above.
Experiment [9] deals with HLA-A*11:01. Described as above.
Experiment [10] has as its target HLA-A*68:02. Described as above. Conditions: source organism: Escherichia coli str. K-12 substr. W3110.
Experiment [11] has as its target HLA-A*24:03. The experiment is described as above.
The target in experiment [12] is HLA-B*15:17. Described as above.
Experiment [13] concerns the target HLA-B*51:01. Described as above.
The target in experiment [14] is HLA-A*02:01. Described as above.
In experiment [15] the target is HLA-A*69:01. The experiment is described as above.
For experiment [16], the target named is HLA-B*46:01. Described as above.
In experiment [17] the target is HLA-A*02:19. The experiment is described as above.
In experiment [18] the target is HLA-A*02:12. Described as above.
Experiment [19] deals with HLA-B*58:01. Nature of the experiment: IEDB peptide-MHC binding, purified MHC/competitive/radioactivity; filed as Kd, often an IC50 or EC50 that approximates it; ≥ and ≤ were set here for values at or beyond the usual limits of such assays.
Experiment [20] addresses HLA-B*57:01. The description is as above.
Experiment [21] concerns the target HLA-B*35:01. Put plainly: IEDB peptide-MHC binding, purified MHC/competitive/fluorescence; filed as Kd, often an IC50 or EC50 that approximates it; ≥ and ≤ were set here for values at or beyond the usual limits of such assays.
The target of experiment [22] is HLA-B*15:01. The experiment is described as above.
Experiment [23] concerns the target HLA-C*07:02. Nature of the experiment: IEDB peptide-MHC binding, purified MHC/direct/fluorescence; filed as Kd, often an IC50 or EC50 that approximates it; ≥ and ≤ were set here for values at or beyond the usual limits of such assays. Conditions: source organism: Human herpesvirus 4 strain B95-8.
The target of experiment [24] is HLA-C*03:03. Described as above.
For experiment [25], the target named is HLA-A*32:01. Nature of the experiment: IEDB peptide-MHC binding, purified MHC/competitive/radioactivity; filed as Kd, often an IC50 or EC50 that approximates it; ≥ and ≤ were set here for values at or beyond the usual limits of such assays. The note with it: source organism: Dengue virus 4 Philippines/H241/1956.
Experiment [26] concerns the target HLA-A*01:01. The description is as above. Conditions: source organism: Dengue virus 2 Jamaica/1409/1983.
Experiment [27] addresses HLA-B*53:01. The description is as above. Conditions: source organism: Dengue virus 2 Jamaica/1409/1983.
Experiment [28] concerns the target HLA-B*58:01. Nature of the experiment: IEDB peptide-MHC binding, purified MHC/direct/fluorescence; filed as Kd, often an IC50 or EC50 that approximates it; ≥ and ≤ were set here for values at or beyond the usual limits of such assays. Conditions: source organism: Reston ebolavirus - Reston.
For experiment [29], the target named is HLA-B*15:01. Described as above. Conditions: source organism: Reston ebolavirus - Reston.
In experiment [30] the target is HLA-B*45:06. Put plainly: IEDB peptide-MHC binding, purified MHC/competitive/fluorescence; filed as Kd, often an IC50 or EC50 that approximates it; ≥ and ≤ were set here for values at or beyond the usual limits of such assays. The note with it: source organism: Mycobacterium tuberculosis H37Rv.
In experiment [31] the target is HLA-B*15:42. The experiment is described as above. Conditions: source organism: Mycobacterium tuberculosis H37Rv.
Experiment [32] concerns the target HLA-B*83:01. The experiment is described as above. The note with it: source organism: Mycobacterium tuberculosis H37Rv.
Where [33] appears, read: source organism: Bacillus cereus G9241.
Setting [34] is: source organism: Escherichia coli str. K-12 substr. W3110.
The mark [35] stands for this setting: source organism: Dengue virus 1 Brazil/97-11/1997.
Setting [36] is: source organism: Dengue virus 2 Jamaica/1409/1983.
[37] abbreviates: source organism: Dengue virus 4 Philippines/H241/1956.
The mark [38] stands for this setting: source organism: Bacillus anthracis str. A0488.
[39] abbreviates: source organism: Vibrio vulnificus CMCP6.
The mark [40] stands for this setting: source organism: Reston ebolavirus.
The mark [41] stands for this setting: source organism: Mycobacterium tuberculosis variant bovis BCG str. Pasteur 1173P2.

ITNPFFYQM: the pKd (in general, the negative decadic logarithm of the Kd, by convention in mol/L) in experiment [1] was 7.25; in experiment [2] (setting [33]) it was not above 4.70; in [3], not above 4.70; in experiment [4] (setting [33]) it was not above 4.70; in experiment [5] (setting [33]), not above 4.70; in [6] (setting [33]) it was 6.57. In addition, the pKd in [7] (setting [33]) and in [8] (setting [33]) was not above 4.70 each time.

Regarding SSFSFGGFTFK, in experiment [9] (source organism: Influenza A virus H3N2), the negative logarithm of the Kd (pKd) was 9.30.

For IQFDWYPTS, the pKd in experiment [10], in experiment [11] (setting [34]), in [2] (setting [34]), in experiment [4] (setting [34]), in experiment [5] (setting [34]) and in experiment [6] (setting [34]) was not above 4.70 in each case. Further, the pKd in [7] (setting [34]), in experiment [12] (setting [34]), in experiment [8] (setting [34]), in experiment [13] (setting [34]), in experiment [14] (setting [34]) and in experiment [15] (setting [34]) was not above 4.70 throughout. Besides, the pKd in [16] (setting [34]) is not above 4.70; in [17] (setting [34]) it was not above 4.70; in experiment [18] (setting [34]), 6.20.

On to KSYAQMWQL, for which the pKd is 8.11 in experiment [19] (setting [35]) and 8.70 in [20] (setting [35]).

Regarding ASSLLKNDIP, the values for the pKd in [19] (setting [36]) and in [20] (setting [36]) were 5.68 and 5.07, respectively.

Turning to VASGLLWVAE, the pKd in experiment [19] (setting [37]) is 7.12; in experiment [20] (setting [37]), not above 4.15.

Take IVVDNTSAF: the pKd in experiment [21] (setting [38]) is 9.40; in [22] (setting [38]), 7.15.

Take FYNIPPMPL: the negative-log Kd (pKd) is 7.37 in [23] and 7.29 in experiment [24] (source organism: Human herpesvirus 4 strain B95-8).

With ASSALLWMAS, the negative logarithm of the Kd (pKd) in [19] (setting [35]) and in experiment [20] (setting [35]) was 4.77 each time.

Sequence TVFSLLLFY gave a pKd in [9] (source organism: Yersinia pestis Nepal516) of 6.30.

As for RSWNTGFDW, the pKd is 7.75 in experiment [19] (setting [37]), 7.86 in experiment [20] (setting [37]) and 7.35 in experiment [25].

For KAINVLRGF, the pKd in experiment [19] (setting [36]) is 7.37; in experiment [20] (setting [36]), 8.46.

On to TAAVLMLVAH, for which the pKd in experiment [19] (setting [35]) was 5.26.

Consider LTSSQQKADW, for which the pKd is 4.96 in [26], not above 4.66 in experiment [27], 7.23 in experiment [19] (setting [36]) and 7.00 in experiment [20] (setting [36]).

Regarding LMLHQQYNQ, the pKd in experiment [11] (setting [39]), in experiment [2] (setting [39]), in [4] (setting [39]), in experiment [5] (setting [39]), in [6] (setting [39]) and in experiment [7] (setting [39]) was not above 4.70 in each case. Moreover, the pKd in experiment [8] (setting [39]) is not above 4.70; in experiment [13] (setting [39]), not above 4.70; in [14] (setting [39]), 6.72; in [22] (setting [39]), not above 4.70; in experiment [17] (setting [39]) it was not above 4.70; in experiment [18] (setting [39]), 6.73.

QAFEAGIDF: the negative logarithm of the Kd (pKd) in [28] is 5.99; in experiment [29] it was 7.12; in [2] (setting [40]), not above 4.70; in experiment [5] (setting [40]) it was not above 4.70; in [6] (setting [40]) it was not above 4.70; in experiment [7] (setting [40]), not above 4.70. Also, the pKd in experiment [21] (setting [40]) is 9.70; in [12] (setting [40]), not above 4.70; in [8] (setting [40]), not above 4.70; in experiment [13] (setting [40]), not above 4.70; in [14] (setting [40]), not above 4.70; in [15] (setting [40]) it was not above 4.70.

Regarding SAFGGGNAF, the pKd in experiment [24] (setting [41]) is not below 9.00; in experiment [16] (setting [41]), 7.43.

As to FPRIGTAVF, the pKd was not above 5.30 in experiment [30], not above 5.30 in [31] and 5.08 in [32].
